Target: β-amyloid1-42 (UniProt P05067)
Assay: cell-based or functional assay

D-Trp-Aib (peptide)
amount of globulomers (densitometry of the 6E10 western blot) (% of the control): 45
